From publication PMC7515959, “Imaging angiogenesis in patients with head and neck squamous cell carcinomas by [^68Ga]Ga-DOTA-E-[c(RGDfK)]2 PET/CT” (European Journal of Nuclear Medicine and Molecular Imaging, 2020) come the findings set out here.

On the set-up of series [1]: species or system human. The note with it: in vivo. Here is the method: Five patients underwent three static whole-body PET/CT at 30, 60 and 90 min post injection on a Biograph 40 mCT scanner (Siemens Medical Solutions, Knoxville TN, USA) equipped with a dual-slice CT for 4 min of PET data per bed position, with bed positions from the base of the skull to trochanter major. For each PET/CT image, two image reconstructions were used, with a TrueX algorithm with point spread function (PSF) and time of flight (TOF) measurements, using three iterations, 21 subsets, matrix size 256 × 256 (pixel spacing of 3.2 mm) or 200 × 200 (pixel spacing of 4.07 mm), full width at half maximum (FWHM) of 5 mm. Post-processing was performed using a 3D Gaussian filter kernel, 7.5 or 3 mm. […]
All ^68Ga-RGD PET/CT scans were evaluated by two experienced nuclear medicine physicians (WJGO, EHJGA) on a dedicated workstation (Oasis software, Segami Corporation, Columbia, MD, USA) with a PET/CT viewer for automatic image registration. […]
Numerical data are presented as mean ± standard deviation (SD). […] The biological half-life of ^68Ga-RGD was calculated using bi-exponential regression analysis in MATLAB version R2014b (MathWorks, Natick, MA, USA). The analyses of optimal imaging time point and uptake values were analysed using SPSS Statistics, version 22.0.0.1 (IBM), with a one-way ANOVA followed by a Bonferroni post hoc test to adjust for multiple comparisons. […]

The test system of series [2] is T1, αvβ3 integrin.
T1 construct: integrin αvβ3 predominantly expressed in endothelial cells of tumour-associated blood vessels; from tissue; host or cells: tumour lesions and lymph nodes of living patients with oral squamous cell carcinoma (in vivo PET/CT)
Nature of the series: clinical. The note with it: human, in vivo, iv, 200 MBq, total radioactivity. Here is the method: (§1) Included patients had no restrictions in food or medication intake. ^68Ga-RGD was administered intravenously using a slow bolus injection of 8 ml over 40 s (200 ± 29 MBq; range 119–218 MBq, 42 ± 8 μg; range 34–58 μg). The net injected dose was calculated by measuring the syringe before and after ^68Ga-RGD administration using a dedicated dose calibrator (VDS-405, Comecer, Joure, The Netherlands). Patients were monitored for (severe) adverse events according to the Common Terminology Criteria for Adverse Events, version 4.03. Venous blood samples at 1, 2, 5, 10, 30 and 90 min after injection were taken for pharmacokinetic and safety analysis. The concentration of ^68Ga-RGD in the blood samples (Bq/ml) was calculated by gamma counter (Wizard Detector Gamma Counter, PerkinElmer Inc., Waltham, MA, USA) while simultaneously measuring 1% standards. Safety analysis included a complete blood count test and assessment of kidney and liver function by measuring the eGFR (MDRD), total bilirubin and aspartate aminotransferase and alanine aminotransferase levels.
(§2) Five patients underwent three static whole-body PET/CT at 30, 60 and 90 min post injection on a Biograph 40 mCT scanner (Siemens Medical Solutions, Knoxville TN, USA) equipped with a dual-slice CT for 4 min of PET data per bed position, with bed positions from the base of the skull to trochanter major. For each PET/CT image, two image reconstructions were used, with a TrueX algorithm with point spread function (PSF) and time of flight (TOF) measurements, using three iterations, 21 subsets, matrix size 256 × 256 (pixel spacing of 3.2 mm) or 200 × 200 (pixel spacing of 4.07 mm), full width at half maximum (FWHM) of 5 mm. Post-processing was performed using a 3D Gaussian filter kernel, 7.5 or 3 mm. The other five patients underwent 60 min dynamic ^68Ga-RGD PET/CT starting at start of injection, of the head and neck region (15 cm FOV), to obtain time–activity curves in malignant lesions. These images were reconstructed in 33 frames ([…], 10 × 5 s, 3 × 10 s, 2 × 15 s, 5 × 30 s, 5 × 120 s, 5 × 300 s and 2 × 600 s). For all patients, a low-dose CT scan was acquired for attenuation correction and anatomical reference, with an automatically modulated X-ray tube voltage and current (100 kV, 30 mA) using Care kV and Care Dose4D (Siemens Healthcare), 512 × 512 voxels; 0.98 pixel spacing; 3 mm slice thickness; 1 pitch. The CT images for anatomical reference were reconstructed with a B31f convolution kernel, slice thickness 5 mm.
(§3) All ^68Ga-RGD PET/CT scans were evaluated by two experienced nuclear medicine physicians (WJGO, EHJGA) on a dedicated workstation (Oasis software, Segami Corporation, Columbia, MD, USA) with a PET/CT viewer for automatic image registration. A volume-of-interest (VOI) around the tumour mass was manually drawn to obtain a maximum standardised uptake value (SUVmax) of the tumour area—drawn on the static PET/CT image acquired 60 min post injection—and to determine the 41% SUVmax isocontour and SUVpeak (highest mean SUV value of 1 cm^3) within this tumour volume. The same analysis was applied on the dynamic imaging series, in which a reconstructed frame of 4 min (56–60 min p.i.) was extracted from the dynamic imaging series to obtain a static image for tumour volume delineation. The dynamic imaging series were also used to obtain time–activity curves using the PMOD Medical Imaging Program version 3.15 (PMOD technologies LLC, Zürich, Switzerland). Curves were estimated for both tumour lesions and background tissue. Tumour delineation was based on the evaluation in Oasis (Oasis software, Segami Corporation, Columbia, MD, USA), drawn on the last frame of the PET series, and subsequently copied to the other frames. For time–activity curves of the muscle, a VOI of 1.5 ml was defined in dorsolateral musculature (contralateral to the tumour) using the CT images and subsequently copied to the dynamic dataset. […]

Series [3] has as its target T2, αvβ3 integrin (Homo sapiens, UniProt P05106+P06756).
T2 construct: integrin αvβ3 predominantly expressed in endothelial cells of tumour-associated blood vessels; from tissue; host or cells: tumour lesions and lymph nodes of living patients with oral squamous cell carcinoma (in vivo PET/CT)
Nature of the series: clinical. The following applies: in vivo. Here is the method:
as §1, §2, §3

A further series is described as follows: clinical. The following applies: human, in vivo, iv, SUVmax tumour. As to the method: as §1, §2, §3
Details of series [4]: species or system human. The following applies: in vivo. As to the method:
as §1
This is another data set of the same source.

Details of series [5]: species or system human. The note with it: in vivo. Here is the method:
as §1, with “[…] The biological half-life of ^68Ga-RGD was calculated using bi-exponential regression” for “Safety”, “in MATLAB version R2014b (MathWorks, Natick, MA, USA). The analyses of optimal imaging time point and uptake values were analysed using SPSS Statistics, version 22.0.0.1 (IBM), with” for “included”, “one-way ANOVA followed by a Bonferroni post hoc” for “complete blood count”, “to adjust for multiple comparisons. […]” for “and assessment of kidney and liver function by measuring the eGFR (MDRD), total bilirubin and aspartate aminotransferase and alanine aminotransferase levels.”
This is another data set of the same source.

T2 sequence (P06756 31-889 limits assumed): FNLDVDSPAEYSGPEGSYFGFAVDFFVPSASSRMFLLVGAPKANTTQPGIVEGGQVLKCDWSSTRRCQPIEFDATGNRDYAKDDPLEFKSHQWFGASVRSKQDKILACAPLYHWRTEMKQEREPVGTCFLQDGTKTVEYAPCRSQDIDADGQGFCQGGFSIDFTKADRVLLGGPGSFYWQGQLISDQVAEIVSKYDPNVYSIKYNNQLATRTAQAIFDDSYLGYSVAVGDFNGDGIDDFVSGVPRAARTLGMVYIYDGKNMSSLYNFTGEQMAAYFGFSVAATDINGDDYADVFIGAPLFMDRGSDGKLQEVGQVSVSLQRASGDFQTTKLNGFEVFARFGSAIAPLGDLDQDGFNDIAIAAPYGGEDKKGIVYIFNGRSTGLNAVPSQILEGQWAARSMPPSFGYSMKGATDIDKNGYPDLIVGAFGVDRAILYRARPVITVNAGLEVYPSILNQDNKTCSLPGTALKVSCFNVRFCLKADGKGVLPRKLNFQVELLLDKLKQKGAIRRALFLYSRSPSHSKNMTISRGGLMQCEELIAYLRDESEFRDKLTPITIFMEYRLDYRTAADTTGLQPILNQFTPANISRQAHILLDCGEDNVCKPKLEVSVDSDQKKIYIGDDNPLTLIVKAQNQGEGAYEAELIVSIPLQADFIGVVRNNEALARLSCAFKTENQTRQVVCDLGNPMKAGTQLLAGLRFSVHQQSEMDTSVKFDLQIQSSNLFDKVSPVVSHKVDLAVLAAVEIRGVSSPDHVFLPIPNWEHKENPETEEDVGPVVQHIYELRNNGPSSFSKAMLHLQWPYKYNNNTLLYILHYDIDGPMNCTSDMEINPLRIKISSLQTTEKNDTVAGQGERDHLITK
T2 sequence (P06756 891-1048 limits assumed): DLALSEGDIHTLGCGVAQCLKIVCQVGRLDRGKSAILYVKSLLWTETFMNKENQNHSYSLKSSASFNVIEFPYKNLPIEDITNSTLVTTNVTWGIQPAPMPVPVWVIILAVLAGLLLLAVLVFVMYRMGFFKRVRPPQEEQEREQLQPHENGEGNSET
T2 sequence (P05106 27-788): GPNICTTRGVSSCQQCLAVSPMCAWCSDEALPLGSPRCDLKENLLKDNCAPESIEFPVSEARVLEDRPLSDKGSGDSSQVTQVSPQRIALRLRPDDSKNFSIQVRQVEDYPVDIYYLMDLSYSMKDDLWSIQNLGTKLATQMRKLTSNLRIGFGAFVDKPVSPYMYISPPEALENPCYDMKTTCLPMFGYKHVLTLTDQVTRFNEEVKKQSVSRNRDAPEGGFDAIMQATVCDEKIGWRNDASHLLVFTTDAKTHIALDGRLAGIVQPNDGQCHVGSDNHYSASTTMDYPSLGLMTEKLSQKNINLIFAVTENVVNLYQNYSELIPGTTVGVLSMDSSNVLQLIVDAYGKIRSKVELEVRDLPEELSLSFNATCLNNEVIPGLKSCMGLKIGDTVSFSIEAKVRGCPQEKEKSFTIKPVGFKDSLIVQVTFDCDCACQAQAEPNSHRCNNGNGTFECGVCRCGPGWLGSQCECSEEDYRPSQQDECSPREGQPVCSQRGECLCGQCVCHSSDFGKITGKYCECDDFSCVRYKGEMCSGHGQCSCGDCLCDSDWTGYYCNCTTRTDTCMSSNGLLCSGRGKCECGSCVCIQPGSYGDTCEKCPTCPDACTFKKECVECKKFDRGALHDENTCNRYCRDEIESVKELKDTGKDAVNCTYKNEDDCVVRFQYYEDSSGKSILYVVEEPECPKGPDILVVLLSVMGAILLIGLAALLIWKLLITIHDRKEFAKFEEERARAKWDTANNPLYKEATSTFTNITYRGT

For the compound `N=C(N)NCCC[C@@H]1NC(=O)[C@H](CCCCNC(=O)CC[C@H](NC(=O)CN2CCN(CC(=O)O)CCN(CC(=O)O)CCN(CC(=O)O)CC2)C(=O)NCCCC[C@@H]2NC(=O)[C@@H](Cc3ccccc3)NC(=O)[C@H](CC(=O)O)NC(=O)CNC(=O)[C@H](CCCNC(=N)N)NC2=O)NC(=O)[C@@H](Cc2ccccc2)NC(=O)[C@H](CC(=O)O)NC(=O)CNC1=O` [^68Ga-RGD, [^68Ga]Ga-DOTA-E-[c(RGDfK)]2, metal not drawn], the “distribution half-life (t1/2α)” value in series [1] was found to be 0.14 ± 0.07 min. Further, in the series on αvβ3 integrin [2] (mean SUVmax in lymph nodes with radiotracer uptake), the SUV came out at 4.4 ± 2.3 SUV. Moreover, in the series with αvβ3 integrin [2] (mean SUVmax in tumour tissue), the SUV at 0.5 h was 5.7 ± 0.8 SUV, the SUV at 1 h is 5.5 ± 1.2 SUV and the SUV at 1.5 h was 4.8 ± 1.2 SUV. Further, in the series with αvβ3 integrin [3], the “SUVmax in lymph nodes with radiotracer uptake, range” value is recorded as 1.8-7.6; the “time after injection at which plateau phase was reached in tumour tissue” value came to 15 min; the “time after injection at which tracer accumulation in tumour tissue plateaued” value came to 10 min; the “tumour-to-muscle tissue ratio (mean)” value was found to be 6.4 ± 0.7. Moreover, the SUV at 1 h in “clinical” came out at 6.5 SUV. Besides, in series [4], the laboratory values entry is listed as “within normal ranges”; the “vital signs and (serious) adverse events” value was “no changes in vital signs nor any (serious) adverse events”. For the same compound, in series [5], the elimination half-life amounted to 23.0 ± 2.3 min and the “uptake by blood cells (whole blood versus plasma concentration)” value is “not taken up by the blood cells”.
